Results on 94 variants are retold here after the supplement of paper PMC10567573.

Sequences and labels used below:
B1: RHOBTB3 (parent)
chain: GGADIIVIKYNVNDKFSFHEVKDN
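Also: lentivirally expressed fusions sorted by FACS into six bins by GFP to DsRed ratio, PSI derived from sequencing read proportions per bin multiplied by bin number.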

This data set covers variants of B1. The data set can be described thus: protein stability index of a GFP-peptide fusion (GPS, HEK-293T) (PSI 1-6); higher = more stable. The settings on record: c terminus: a fixed tail appended.
For GGADIIVNKYNVNDKFSFHEVKDN, the protein stability index was found to be 4.41.

In the case of GGADIIVAKYNVNDKFSFHEVKDN, the protein stability index turned out to be 1.78.

In the case of GGADIIVEKYNVNDKFSFHEVKDN, the protein stability index turned out to be 4.25.

As to GGADIIVQKYNVNDKFSFHEVKDN, the protein stability index was found to be 3.48.

Turning to GGADIIVWKYNVNDKFSFHEVKDN, the protein stability index stood at 2.04.

As for GGADIIVTKYNVNDKFSFHEVKDN, the protein stability index was 2.95.

As to GGADIIVDKYNVNDKFSFHEVKDN, the protein stability index was 3.81.

As to GGADIIVSKYNVNDKFSFHEVKDN, the protein stability index is 3.71.

Regarding GGADIIVVKYNVNDKFSFHEVKDN, the protein stability index was determined as 1.81.

For the variant GGADIIVRKYNVNDKFSFHEVKDN, the protein stability index stood at 3.17.

As for GGADIIVMKYNVNDKFSFHEVKDN, the protein stability index is 1.89.

On to GGADIIVGKYNVNDKFSFHEVKDN, for which the protein stability index came to 2.92.

Take GGADIIVFKYNVNDKFSFHEVKDN: the protein stability index came to 1.44.

Regarding GGADIIVKKYNVNDKFSFHEVKDN, the protein stability index is 3.96.

GGADIIVLKYNVNDKFSFHEVKDN: the protein stability index stood at 1.47.

GGADIIVYKYNVNDKFSFHEVKDN: the protein stability index came to 1.59.

In the case of GGADIIVPKYNVNDKFSFHEVKDN, the protein stability index turned out to be 1.32.

On to GGADIIVCKYNVNDKFSFHEVKDN, for which the protein stability index was 2.22.

Regarding GGADIIVHKYNVNDKFSFHEVKDN, the protein stability index is 3.35.

For the variant GGADIIVIGYNVNDKFSFHEVKDN, the protein stability index was 3.78.

With GGADIIVIPYNVNDKFSFHEVKDN, the protein stability index worked out at 2.07.

As for GGADIIVITYNVNDKFSFHEVKDN, the protein stability index worked out at 2.97.

On to GGADIIVIFYNVNDKFSFHEVKDN, for which the protein stability index turned out to be 3.82.

As for GGADIIVIYYNVNDKFSFHEVKDN, the protein stability index was 2.89.

As for GGADIIVIHYNVNDKFSFHEVKDN, the protein stability index was 3.31.

Turning to GGADIIVIDYNVNDKFSFHEVKDN, the protein stability index is 1.66.

On to GGADIIVIIYNVNDKFSFHEVKDN, for which the protein stability index was 4.01.

As to GGADIIVIRYNVNDKFSFHEVKDN, the protein stability index is 2.33.

On to GGADIIVIWYNVNDKFSFHEVKDN, for which the protein stability index came to 3.44.

In the case of GGADIIVIMYNVNDKFSFHEVKDN, the protein stability index amounted to 3.15.

With GGADIIVIAYNVNDKFSFHEVKDN, the protein stability index was determined as 1.67.

With GGADIIVICYNVNDKFSFHEVKDN, the protein stability index turned out to be 2.65.

GGADIIVILYNVNDKFSFHEVKDN: the protein stability index was determined as 2.84.

For the variant GGADIIVIKYNRNDKFSFHEVKDN, the protein stability index was found to be 2.8.

Regarding GGADIIVIKYNDNDKFSFHEVKDN, the protein stability index turned out to be 1.95.

For the variant GGADIIVIKYNWNDKFSFHEVKDN, the protein stability index was 3.56.

On to GGADIIVIKYNYNDKFSFHEVKDN, for which the protein stability index was 2.38.

In the case of GGADIIVIKYNANDKFSFHEVKDN, the protein stability index worked out at 2.83.

For the variant GGADIIVIKYNQNDKFSFHEVKDN, the protein stability index was 2.3.

GGADIIVIKYNGNDKFSFHEVKDN: the protein stability index was determined as 2.7.

Consider GGADIIVIKYNPNDKFSFHEVKDN, for which the protein stability index came out at 2.13.

For GGADIIVIKYNKNDKFSFHEVKDN, the protein stability index was determined as 1.82.

Turning to GGADIIVIKYNSNDKFSFHEVKDN, the protein stability index came to 1.9.

In the case of GGADIIVIKYNHNDKFSFHEVKDN, the protein stability index came out at 1.92.

With GGADIIVIKYNMNDKFSFHEVKDN, the protein stability index was 2.67.

As for GGADIIVIKYNLNDKFSFHEVKDN, the protein stability index was 2.24.

On to GGADIIVIKYNTNDKFSFHEVKDN, for which the protein stability index stood at 2.73.

As for GGADIIVIKYNINDKFSFHEVKDN, the protein stability index turned out to be 3.31.

In the case of GGADIIVIKYNNNDKFSFHEVKDN, the protein stability index came out at 2.66.

As for GGADIIVIKYNENDKFSFHEVKDN, the protein stability index was 1.72.

For GGADIIVIKWNVNDKFSFHEVKDN, the protein stability index stood at 3.26.

On to GGADIIVIKKNVNDKFSFHEVKDN, for which the protein stability index was determined as 1.82.

Take GGADIIVIKGNVNDKFSFHEVKDN: the protein stability index was determined as 2.19.

For GGADIIVIKLNVNDKFSFHEVKDN, the protein stability index was 3.82.

For the variant GGADIIVIKRNVNDKFSFHEVKDN, the protein stability index is 2.53.

For the variant GGADIIVIKDNVNDKFSFHEVKDN, the protein stability index is 3.68.

For GGADIIVIKHNVNDKFSFHEVKDN, the protein stability index was found to be 1.92.

Take GGADIIVIKSNVNDKFSFHEVKDN: the protein stability index turned out to be 1.88.

Consider GGADIIVIKTNVNDKFSFHEVKDN, for which the protein stability index came out at 1.92.

On to GGADIIVIKNNVNDKFSFHEVKDN, for which the protein stability index worked out at 2.03.

In the case of GGADIIVIKINVNDKFSFHEVKDN, the protein stability index is 4.15.

Take GGADIIVIKQNVNDKFSFHEVKDN: the protein stability index was found to be 1.62.

For the variant GGADIIVIKFNVNDKFSFHEVKDN, the protein stability index came out at 2.26.

On to GGADIIVIKANVNDKFSFHEVKDN, for which the protein stability index came to 1.27.

For GGADIIVIKCNVNDKFSFHEVKDN, the protein stability index came to 3.4.

Take GGADIIVIKMNVNDKFSFHEVKDN: the protein stability index came out at 1.94.

Regarding GGADIIVIKENVNDKFSFHEVKDN, the protein stability index amounted to 2.29.

On to GGADIIVIKVNVNDKFSFHEVKDN, for which the protein stability index stood at 3.23.

Turning to GGADIIVIKPNVNDKFSFHEVKDN, the protein stability index amounted to 2.77.

For GGADIIYIKYNVNDKFSFHEVKDN, the protein stability index amounted to 2.29.

As for GGADIINIKYNVNDKFSFHEVKDN, the protein stability index worked out at 2.85.

On to GGADIIQIKYNVNDKFSFHEVKDN, for which the protein stability index came to 2.31.

Turning to GGADIIWIKYNVNDKFSFHEVKDN, the protein stability index was 1.52.

In the case of GGADIIRIKYNVNDKFSFHEVKDN, the protein stability index stood at 1.67.

With GGADIIPIKYNVNDKFSFHEVKDN, the protein stability index came out at 4.13.

GGADIISIKYNVNDKFSFHEVKDN: the protein stability index is 2.17.

On to GGADIITIKYNVNDKFSFHEVKDN, for which the protein stability index stood at 1.6.

Regarding GGADIIMIKYNVNDKFSFHEVKDN, the protein stability index was 2.06.

With GGADIIVIKYSVNDKFSFHEVKDN, the protein stability index is 2.23.

As to GGADIIVIKYRVNDKFSFHEVKDN, the protein stability index came to 2.45.

Regarding GGADIIVIKYTVNDKFSFHEVKDN, the protein stability index was 2.43.

Turning to GGADIIVIKYPVNDKFSFHEVKDN, the protein stability index is 3.2.

Take GGADIIVIKYAVNDKFSFHEVKDN: the protein stability index is 2.36.

In the case of GGADIIVIKYHVNDKFSFHEVKDN, the protein stability index turned out to be 3.1.

As to GGADIIVIKYEVNDKFSFHEVKDN, the protein stability index came to 1.76.

For GGADIIVIKYVVNDKFSFHEVKDN, the protein stability index is 3.99.

With GGADIIVIKYMVNDKFSFHEVKDN, the protein stability index came out at 3.72.

Take GGADIIVIKYGVNDKFSFHEVKDN: the protein stability index was determined as 3.11.

Turning to GGADIIVIKYIVNDKFSFHEVKDN, the protein stability index worked out at 2.24.

With GGADIIVIKYDVNDKFSFHEVKDN, the protein stability index was determined as 2.29.

Regarding GGADIIVIKYQVNDKFSFHEVKDN, the protein stability index worked out at 3.46.

Consider GGADIIVIKYWVNDKFSFHEVKDN, for which the protein stability index was found to be 3.58.

As to GGADIIVIKYFVNDKFSFHEVKDN, the protein stability index was 1.97.

Consider GGADIIVIKYKVNDKFSFHEVKDN, for which the protein stability index came out at 4.82.
